Assay results as given in US11708423B2, “Chimeric engulfment receptor molecules and methods of use” (CERO THERAPEUTICS, INC., priority 2017, dated 2023).

Assays:
H1975 NSCLC cells = assay: LDH-based cytotoxicity, H1975 cells, 18 hours co-culture; type: cell-based; settings: Osimeritinib 0, 500, 1000 nM, E:T 2:1 or 5:1
Protocol: H1975 NSCLC cells were co-cultured with CER123- or CER126-expressing CD4+ T cells with increasing concentrations of Osimeritnib (0, 500 nM, or 1000 nM). Mock-transduced (vector only) T cells were used as control. Assays were performed using CER modified T cells purified by FACS using an EGFR specific antibody 7 days after activation using CD3 & CD28 microbeads. CER modified T cells and H1975 cells were co-cultured at effector:target cell ratios of 2:1 or 5:1. After 18 hours of co-culture, bulk supernatants were evaluated using LDH-based cytotoxicity assay.

[1] = tested on: HCC159 lung adenocarcinoma cells; assay: LDH-based cytotoxicity, HCC159 cells; type: cell-based; settings: Osimeritinib 0, 1, 5 nM; E:T 2:1 or 5:1; 18 hours
Protocol: HCC159 lung adenocarcinoma cells were co-cultured with CER123- or CER126-expressing CD4+ T cells with increasing concentrations of Osimeritnib (0, 1 nM, 5 nM). After 18 hours of co-culture, bulk supernatants were evaluated using a LDH-based cytotoxicity assay. T cells assays were performed using purified, EGFR^+ (transduction marker), CER modified T cells 7 days after activation using CD3 & CD28 microbeads at effector:target cell ratios of 2:1 or 5:1. Control “Mock” T cells were transduced with vector alone. […] Bulk supernatants were also analyzed after 18 hours of co-culture for Interferon Gamma (IFNγ) secretion (FIG. 50). Control “Mock” T cells were transduced with vector alone.

[2] = tested on: A549 cells introduced with an ELM4-ALK translocation; assay: Interferon Gamma secretion, A549 ALK+ co-culture; type: cell-based; settings: Crizotinib (3700 nM) or Alectinib (3700 nM), 18 hours, E:T 2:1 and 5:1
Protocol: After 18 hours of co-culture, bulk supernatants were evaluated for Interferon Gamma secretion (FIGS. 66A-B). Assays were performed using purified, tEGFR^+ (transduction marker), CER-expressing T cells 7 days after activation using CD3 & CD28 microbeads at effector: target ratios of (2:1 & 5:1). Control “Mock” T cells were transduced with vector alone.

SCC152 cells [3] = assay: Magnitude breadth of phagocytosis by CER-transduced CD4+ T cells; type: cell-based, human
Protocol: Various CER-modified CD4+ T cells were also evaluated for breadth of response to determine whether a particular CER confers a broad phagocytic response of low magnitude (e.g., 10% engulfment in 90% of cells) or a less frequent but strong phagocytic response (e.g., 90% engulfment in 10% of cells) in the host cells. CD8+ T cells were transduced with HPV16 E7 specific TCR as described in Example 5. CD4+ T cells were transduced with lentiviral vectors comprising a CER21, CER27, CER104, CER116, or CER117 nucleic acid. Mock-transduced (vector alone) CD4+ T cell were used as control. CD4+/CER+ and CD8+/E7 TCR+ T cells were stained with CELLTRACE violet. […] HPV16 E7 TCR transduced CD8+ T cells and selected CER transduced CD4+ T cells were mixed at a 1:1 ratio and co-cultured with SCC152 cells at a 1:1 ratio for 8 hours. Phagocytosis of target SCC152 cells by CER-transduced CD4+ T cells was analyzed by fluorescence microscopy. […] The horizontal axis represents the % area of CER-transduced CD4+ T cells having engulfment or % area of […]. This measure was rarely above 40% across CER types tested. The vertical axis represents the proportion of CER-transduced CD4+ T cells that were phagocytic. For CER104, about 20% of CER104-transduced CD4+ T cells have more than 10% engulfment. For CER117-transduced CD4+ T cells, less than 10% have more than 10% engulfment.

human primary B cells [4] = assay: Proliferation of CER+ B cells co-cultured with paclitaxel treated Jurkat cells (CELLTRACE Violet dilution); type: cell-based; settings: 5 days co-culture with paclitaxel (30 μM) treated Jurkat cells, no exogenous cytokines
Protocol: The proliferation capacity of CER19+ and CER21+ human primary B cells was evaluated by co-culture with paclitaxel (30 μM) treated Jurkat lymphoma cells. CER-transduced B cells were labeled with CELLTRACE Violet and then co-cultured with paclitaxel treated Jurkat cells a target cell to effector cell ratio of 5:1 at 37° C. in the absence of exogenous cytokines for 5 days. Proliferation of CER19+ or CER21+B cells was assessed by flow cytometry by measuring dilution of CELLTRACE Violet (FIG. 23). Both CER19+ and CER21+ B cells increased approximately 10-fold after 5 days of co-culture in the absence of exogenous cytokines.

human primary B cells [5] = assay: Gene expression profile (activation state) of CER21+ B cells; type: cell-based; settings: CD40, CD40L, RANTES, CXCL10, CXCL11, LTα, TNFa
Excerpt: To evaluate the activation state of CER21+ human primary B cells, gene expression profiles were examined from transduced B cell populations.

[6] = tested on: pHrodo-red labeled, dexamethasone treated thymocytes; assay: Luminal degradation of engulfed thymocytes in CER-transduced Ba/F3 cells (time-lapse imaging); type: cell-based; settings: FACS purified after overnight co-culture
Protocol: Luminal degradation in CER-transduced cells was also evaluated following engulfment. Ba/F3 cells transduced with CER21 or CER116 were co-cultured with pHrodo-red labeled, dexamethasone treated thymocytes overnight and subsequently purified by FACS. Target cell destruction was visualized by time-lapse imaging and quantified over time (FIG. 85F). […] CER116-harboring Ba/F3 cells (top) catabolize target cells, allowing cells to return to homeostasis and resume immune responsiveness. The addition of a TRAF6 signaling domain to the CER construct promotes rapid destruction of engulfed material.

SCC152 cells [7] = assay: LDH cytotoxicity assay, CD4 T cell/CER104 + CD8 T cell/HPV16 E7 TCR co-culture; type: cell-based, human; settings: CD4/CER + CD8/HPV16 E7 TCR 1:1, 4 hours
Excerpt: LDH is a cytosolic enzyme that is released by a cell into cell culture media when the plasma membrane is damaged. Thus, LDH's presence in culture medium is a marker for cell death. LDH assays are capable of detecting low level damage to cell membrane which cannot be detected using other methods. LDH may be detected using colorimetric or fluorometric methods.

| Molecule | cell killing of H1975 cells (LDH) (H1975 NSCLC cells) | cell killing of HCC159 cells (LDH) [1] | Interferon Gamma secretion [2] | further results |
| --- | --- | --- | --- | --- |
| CER126: Tim4 binding and transmembrane domains, TLR2 primary and TRAF2 secondary signaling domains; SEQ ID NO:174 (protein, CER126 protein) MSKGLLLLWLVTELWWLYLTPAASEDTIIGFLGQPVTLPCHYLSWSQSRNSMCWGKGSCPNSKCNAELLRTDGTRIISRKSTKYTLLGKVQFGEVSLTISNTNRGDSGVYCCRIEVPGWFNDVKKNVRLELRRATTTKKPTTTTRPTTTPYVTTTTPELLPTTVMTTSVLPTTTPPQTLATTAFSTAVTTCPSTTPGSFSQETTKGSAFTTESETLPASNHSQRSMMTISTDIAVLRPTGSNPGILPSTSQLTTQKTTLTTSESLQKTTKSHQINSRQTILIIACCVGFVLMVLLFLAFLHRFHGLWYMKMMWAWLQAKRKPRKAPSRNICYDAFVSYSERDAYWVENLMVQELENFNPPFKLCLHKRDFIPGKWIIDNIIDSIEKSHKTVFVLSENFVKSEWCKYELDFSHFRLFDENNDAAILILLEPIEKKAIPQRFCKLRKIMNTKTYLEWPMDEAQREGFWVNLRAAIKSMAAASVTPPGSLELLQPGFSKTLLGTKLEAKYLCSACRNVLRRPFQAQCGHRYCSFCLASILSSGPQNCAACVHEGIYEEGISILESSSAFPDNAARREVESLPAVCPSDGCTWKGTLKEYESCHEGRCPLMLTECPACKGLVRLGEKERHLEHECPERSLSCRHCRAPCCGADVKAHHEVCPKFPLTCDGCGKKKIPREKFQDHVKTCGKCRVPCRFHAIGCLETVEGEKQQEHEVQWLREHLAMLLSSVLEAKPLLGDQSHAGSELLQRCESLEKKTATFENIVCVLNREVERVAMTAEAC | inducible cell killing responses | inducible cell killing responses | dose-dependent inducible cytokine secretion | engulfment of SCC152 target cells (fluorescent micrograph) (SCC152 cells [3]; CD4+ T cells): SCC152 target cells engulfed |
| CER123: Tim4 binding and transmembrane domains, TLR2 primary and TRAF6 secondary signaling domains; SEQ ID NO:150 (protein, CER123 protein) MSKGLLLLWLVTELWWLYLTPAASEDTIIGFLGQPVTLPCHYLSWSQSRNSMCWGKGSCPNSKCNAELLRTDGTRIISRKSTKYTLLGKVQFGEVSLTISNTNRGDSGVYCCRIEVPGWFNDVKKNVRLELRRATTTKKPTTTTRPTTTPYVTTTTPELLPTTVMTTSVLPTTTPPQTLATTAFSTAVTTCPSTTPGSFSQETTKGSAFTTESETLPASNHSQRSMMTISTDIAVLRPTGSNPGILPSTSQLTTQKTTLTTSESLQKTTKSHQINSRQTILIIACCVGFVLMVLLFLAFLHRFHGLWYMKMMWAWLQAKRKPRKAPSRNICYDAFVSYSERDAYWVENLMVQELENFNPPFKLCLHKRDFIPGKWIIDNIIDSIEKSHKTVFVLSENFVKSEWCKYELDFSHFRLFDENNDAAILILLEPIEKKAIPQRFCKLRKIMNTKTYLEWPMDEAQREGFWVNLRAAIKSMSLLNCENSCGSSQSESDCCVAMASSCSAVTKDDSVGGTASTGNLSSSFMEEIQGYDVEFDPPLESKYECPICLMALREAVQTPCGHRFCKACIIKSIRDAGHKCPVDNEILLENQLFPDNFAKREILSLMVKCPNEGCLHKMELRHLEDHQAHCEFALMDCPQCQRPFQKFHINIHILKDCPRRQVSCDNCAASMAFEDKEIHDQNCPLANVICEYCNTILIREQMPNHYDLDCPTAPIPCTFSTFGCHEKMQRNHLARHLQENTQSHMRMLA | inducible cell killing responses | inducible cell killing responses | dose-dependent inducible cytokine secretion | – |
| CER21: Tim4 binding and transmembrane domains, TLR8 signaling domain; SEQ ID NO:88 (protein, CER21 chimeric engulfment receptor) MSKGLLLLWLVTELWWLYLTPAASEDTIIGFLGQPVTLPCHYLSWSQSRNSMCWGKGSCPNSKCNAELLRTDGTRIISRKSTKYTLLGKVQFGEVSLTISNTNRGDSGVYCCRIEVPGWFNDVKKNVRLELRRATTTKKPTTTTRPTTTPYVTTTTPELLPTTVMTTSVLPTTTPPQTLATTAFSTAVTTCPSTTPGSFSQETTKGSAFTTESETLPASNHSQRSMMTISTDIAVLRPTGSNPGILPSTSQLTTQKTTLTTSESLQKTTKSHQINSRQTILIIACCVGFVLMVLLFLAFLHHLFYWDVWFIYNVCLAKVKGYRSLSTSQTFYDAYISYDTKDASVTDWVINELRYHLEESRDKNVLLCLEERDWDPGLAIIDNLMQSINQSKKTVFVLTKKYAKSWNFKTAFYLALQRLMDENMDVIIFILLEPVLQHSQYLRLRQRICKSSILQWPDNPKAEGLFWQTLRNVVLTENDSRYNNMYVDSIKQY | – | – | – | increase of CER+ B cells (human primary B cells [4]): approximately 10 fold; activation state (B cell mRNA levels compared to transduced control B cells) (human primary B cells [5]): promoted B cell activation molecules and survival factors; luminal content degradation over time [6]: broken down over-time |
| CER104: Tim4 binding and transmembrane domains, TLR8 primary and DAP12 secondary signaling domains; SEQ ID NO:133 (protein, CER104 protein) MSKGLLLLWLVTELWWLYLTPAASEDTIIGFLGQPVTLPCHYLSWSQSRNSMCWGKGSCPNSKCNAELLRTDGTRIISRKSTKYTLLGKVQFGEVSLTISNTNRGDSGVYCCRIEVPGWFNDVKKNVRLELRRATTTKKPTTTTRPTTTPYVTTTTPELLPTTVMTTSVLPTTTPPQTLATTAFSTAVTTCPSTTPGSFSQETTKGSAFTTESETLPASNHSQRSMMTISTDIAVLRPTGSNPGILPSTSQLTTQKTTLTTSESLQKTTKSHQINSRQTILIIACCVGFVLMVLLFLAFLHHLFYWDVWFIYNVCLAKVKGYRSLSTSQTFYDAYISYDTKDASVTDWVINELRYHLEESRDKNVLLCLEERDWDPGLAIIDNLMQSINQSKKTVFVLTKKYAKSWNFKTAFYLALQRLMDENMDVIIFILLEPVLQHSQYLRLRQRICKSSILQWPDNPKAEGLFWQTLRNVVLTENDSRYNNMYVDSIKQYYFLGRLVPRGRGAAEAATRKQRITETESPYQELQGQRSDVYSDLNTQRPYYK | – | – | – | cytolytic activity (LDH cytotoxicity assay) (SCC152 cells [7]): enhanced cytolytic activity; proportion of CER-transduced CD4+ T cells that have more than 10% engulfment (SCC152 cells [3]; 8 hours co-culture with CD8/E7 TCR T cells and SCC152 cells): about 20% |
